From patent US20230391856A1 (ICAHN SCHOOL OF MEDICINE AT MOUNT SINAI, published 2023)
Positions count from the first letter of the chain named.

B1: SARS2-1G9_f3 (antibody, V domains shown)
VH: QVQLVQSGAEVKKPGASVKVSCKASGYTFTSYDIIWVRQATGQGLEWMGWMSPNSGNTGYAQKFQGRVTMTRNTSISTAYMELSSLRSEDTAVYYCARFGYGSGALDYYYYGLDVWGQGTTVTVSS
VL: not shown
notes: also called antibody number 5
B2: 11G2_f3 (antibody, V domains shown)
VH: B1 VH with I35T, T69S
VL: EIVLTQSPGTLSLSPGERATLSCRASQSVRNSHLAWYQQKPGQAPRLLIYGASSRATGIPDRFSGSGSGTDFTLTISRLEPEDFAVYYCQQFGSSPITFGQGTRLEIK
notes: also called SARS2-11G2_S; antibody number 13
B3: SARS2-1C12_f3 (antibody, V domains shown)
VH: B1 VH with I35T, A61T
VL: B2 VL with N31S, F92Y, G93N, S94N
notes: also called antibody number 1
B4: SARS2-1D5_f3 (antibody, V domains shown)
VH: B1 VH with I35T, S84N
VL: B2 VL with E17D, N31S, T73S
notes: also called antibody number 2
B5: SARS2-1D10_f3 (antibody, V domains shown)
VH: B1 VH with T41S, S77N
VL: not shown
notes: also called antibody number 3
B6: SARS2-1E2_f3 (antibody, V domains shown)
VH: B1 VH with I35T
VL: B2 VL with N31S, L34F, Y87C, F92Y
notes: also called antibody number 4
B7: SARS2-5D7_f3 (antibody, V domains shown)
VH: B1 VH with A16T, A24T, N54K, S55N, K63R
VL: B2 VL with N31S, Q38R, S66R, F92Y, G93N, S94I
notes: also called antibody number 6
B8: SARS2-5H12_f3 (antibody, V domains shown)
VH: B1 VH with A16T, A24T, T30P, N54K, S55N, Y60F, K63R, D107G
VL: B2 VL with N31S, Q38R, S66R, F92Y, G93N, S94F
notes: also called antibody number 7
B9: SARS2-7C10_f3 (antibody, V domains shown)
VH: B1 VH with I35T, S84R
VL: B2 VL with N31S, Y37S
notes: also called antibody number 8
B10: SARS2-8H4_f3 (antibody, V domains shown)
VH: B1 VH with I35T
VL: B2 VL with N31S
notes: also called antibody number 9
B11: SARS2-9C6_f3 (antibody, V domains shown)
VH: B1 VH with I35T, N54K
VL: B2 VL with N31S, Q38R, S66R, F92Y, G93N
notes: also called antibody number 10
B12: SARS2-16C5_f3 (antibody, V domains shown)
VH: B1 VH with S77G, Y95F
VL: B2 VL with N31S, F92Y, G93N, S94N
notes: also called antibody number 15; family B
B13: SARS2-17A8_f3 (antibody, V domains shown)
VH: B1 VH with R72K
VL: not shown
notes: also called antibody number 17
B14: SARS2-17F2_f3 (antibody, V domains shown)
VH: B1 VH with K13R, I35T, N54D, K63R
VL: B2 VL with N31S, F92Y, G93N
notes: also called antibody number 18
B15: SARS2-18E7_f3 (antibody, V domains shown)
VH: B1 VH with K19T, K63R
VL: not shown
notes: also called antibody number 19
B16: SARS2-10D6_f3 (antibody, V domains shown)
VH: EVQLVETGGGLIQPGGSLRLSCAASGITVSSNYMNWVRQAPGKGLEWVSVIYSGGSTYYADSVKGRFTISRDNSKNTLYLQMNSLRAEDTAVYYCARDLELAGAFDIWGQGTMVTVSL
VL: DIQLTQSPSFLSASVGDRVTITCRASQGISSYLAWYQQKPGKAPKVLIYAASTLQSGVPSRFSGSGSGTEFTLTISSLQPEDFATYYCQQLNSYPPSTFGQGTKLEIK
notes: also called antibody number 11; family A
B17: SARS2-11D5_f3 (antibody, V domains shown)
VH: B16 VH with N35S, E100A, L101V
VL: B16 VL
notes: also called antibody number 12
B18: SARS2-19C4_f3 (antibody, V domains shown)
VH: B16 VH with Y58F, L101V, A104G
VL: B16 VL with E70K, Y94F
notes: also called antibody number 20; family A
B19: SARS2-16C12_f3 (antibody, V domains shown)
VH: B1 VH
VL: not shown
notes: also called antibody number 16; family B
B20: 8A1 (antibody, V domains shown)
VH: EVQLQESGGGLVQPGGSLKLSCAASGFTFSSYTMSWVRQTPEKRLEWVAYISNGGGSISYPDTVKGRFTISRDNAKNTLYLHMSSLKSEDTAMYHCAREGLRPGDRDRYYAMDYWGQGTSVTVSS
VL: DIVITQSPALMAAFPGDRVTITCSVSSSVSSSNLHWYRQKSETSPKPWIYGTSTLASGVPVRFSGSGSGTSYSLTISSMEAEDAATYYCQQWSSYPLTFGAGTKLELKR

molecular target: T1, SARS-CoV-2 spike receptor binding domain (RBD) (SARS-CoV-2, UniProt P0DTC2 319-541); test: RBD/ACE2 competition; RBD binding to ACE2 on HEK-293 cells
T1 construct: also called SARS-CoV RBD

Compared with B1, B2 is lower in “ACE2 Inhibition (%)” value: 96% for the first, 90% for the second.

Compared with B3, B4 is higher in “ACE2 Inhibition (%)” value: 88% for the first, 94% for the second.

Going from B5 to B6, the “ACE2 Inhibition (%)” value falls from 95% to 86%.

Going from B7 to B8, the “ACE2 Inhibition (%)” value rises from 97% to 100%.

First: B9
Second: B10
The “ACE2 Inhibition (%)” value of the first is lower: 85% for the first, 93% for the second.

Compared with B11, B12 is higher in “ACE2 Inhibition (%)” value: 85% for the first, 94% for the second.

First: B13
Second: B14
The “ACE2 Inhibition (%)” value of the first is higher: 98% for the first, 65% for the second.

Compared with B15, B16 is lower in “ACE2 Inhibition (%)” value: 82% for the first, 81% for the second.

Going from B17 to B18, the “ACE2 Inhibition (%)” value rises from 66% to 89%.

For B19, the “ACE2 Inhibition (%)” value was 87%.

molecular target: SARS-CoV-2 spike receptor binding domain (RBD) (SARS-CoV-2, UniProt P0DTC2 319-541); test: as above

In the case of B20, the “ACE2 Inhibition (%)” value is reported as 95%.

molecular target: SARS-CoV-2 spike protein (full length, wild type) (SARS-CoV-2, UniProt P0DTC2 14-1273); test: cell-based or functional assay

With B20 the “EC50 (pM)” value was 96 pM.

molecular target: T2, SARS-CoV-2 spike protein (full length, wild type) (SARS-CoV-2, UniProt P0DTC2 14-1273); test: cell-based or functional assay

Compared with B1, B2 is lower in “EC50 (pM)” value: 145 pM for the first, 74 pM for the second.

Compared with B3, B4 is lower in “EC50 (pM)” value: 75 pM for the first, 49 pM for the second.

First: B5
Second: B6
The “EC50 (pM)” value of the first is lower: 47 pM for the first, 218 pM for the second.

Compared with B7, B8 is higher in “EC50 (pM)” value: 284 pM for the first, 377 pM for the second.

First: B9
Second: B10
The “EC50 (pM)” value of the first is higher: 152 pM for the first, 100 pM for the second.

Going from B11 to B12, the “EC50 (pM)” value rises from 105 pM to 107 pM.

First: B13
Second: B14
The “EC50 (pM)” value of the first is lower: 59 pM for the first, 151 pM for the second.

Going from B15 to B16, the “EC50 (pM)” value rises from 62 pM to 1020 pM.

Compared with B17, B18 is higher in “EC50 (pM)” value: 440 pM for the first, 492 pM for the second.

In the case of B19, the “EC50 (pM)” value is reported as 59 pM.

molecular target: T2, SARS-CoV-2 spike protein (full length, …); test: cell-based or functional assay; remark: another data set of the same source

Compared with B2, B4 is lower in “Inhibition: EC50 [pM]” value: 109 pM for the first, 94 pM for the second.

molecular target: T1, SARS-CoV-2 spike receptor binding …; test: RBD/ACE2 competition; RBD binding to ACE2 on HEK-293 cells; remark: another data set of the same source

First: B1
Second: B2
The “ACE2 binding [% inhibition]” value of the first is higher: 96% for the first, 90% for the second.

First: B3
Second: B4
The “ACE2 binding [% inhibition]” value of the first is lower: 88% for the first, 94% for the second.

First: B5
Second: B6
The “ACE2 binding [% inhibition]” value of the first is higher: 95% for the first, 86% for the second.

First: B7
Second: B8
The “ACE2 binding [% inhibition]” value of the first is lower: 97% for the first, 100% for the second.

Compared with B9, B10 is higher in “ACE2 binding [% inhibition]” value: 85% for the first, 93% for the second.

Compared with B11, B12 is higher in “ACE2 binding [% inhibition]” value: 85% for the first, 94% for the second.

First: B13
Second: B14
The “ACE2 binding [% inhibition]” value of the first is higher: 98% for the first, 65% for the second.

Going from B15 to B16, the “ACE2 binding [% inhibition]” value falls from 82% to 81%.

First: B17
Second: B18
The “ACE2 binding [% inhibition]” value of the first is lower: 66% for the first, 89% for the second.

With B19 the “ACE2 binding [% inhibition]” value was 87%.
